Results published in the supplement of paper PMC5998384.

Tests used:
[1] = system: HeLa Kyoto; experiment: solubility in G1/S (NP-40 vs SDS abundance) (log2 ratio); higher = more soluble; conditions: cell cycle stage: G1/S
[2] = system: HeLa Kyoto; experiment: melting temperature (median over replicates), in situ; higher = more thermally stable
[3] = system: HeLa Kyoto; experiment: solubility change mitosis vs G1/S (difference of NP-40 vs SDS log2 ratios) (log2 ratio difference); higher = more soluble in mitosis
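Wherever melting temperature (median over replicates), in situ is given: HeLa Kyoto cells synchronized by double thymidine or nocodazole block, proteins quantified by TMT10plex mass spectrometry, three independent biological replicates.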
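Wherever solubility change mitosis vs G1/S (difference of NP-40 vs SDS log2 ratios) is given: synchronized HeLa Kyoto cells (double thymidine block for G1/S, nocodazole release for mitosis), protein amounts in NP-40 versus SDS lysates quantified by mass spectrometry, three biological replicates.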
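Wherever solubility in G1/S (NP-40 vs SDS abundance) is given: HeLa Kyoto cells arrested at G1/S by double thymidine block, proteins quantified by TMT10plex mass spectrometry in mild NP-40 versus SDS extracts, three biological replicates.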

Sequence of HMGN3 (chain, as listed by the source): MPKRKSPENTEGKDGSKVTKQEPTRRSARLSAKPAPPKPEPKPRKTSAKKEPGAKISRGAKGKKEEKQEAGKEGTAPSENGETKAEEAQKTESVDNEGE
Sequence of GNPTG (chain, as listed by the source): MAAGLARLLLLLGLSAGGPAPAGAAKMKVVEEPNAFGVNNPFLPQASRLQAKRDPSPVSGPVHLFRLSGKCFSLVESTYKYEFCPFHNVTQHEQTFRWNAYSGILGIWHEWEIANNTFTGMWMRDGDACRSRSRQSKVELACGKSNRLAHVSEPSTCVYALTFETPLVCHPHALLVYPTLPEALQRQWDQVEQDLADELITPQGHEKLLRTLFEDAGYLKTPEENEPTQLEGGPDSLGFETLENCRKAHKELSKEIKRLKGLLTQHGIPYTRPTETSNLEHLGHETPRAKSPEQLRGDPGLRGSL

| Substance | solubility in G1/S (log2) [1] | melting temperature ([2]; cell cycle stage: G1/S) [°C] | melting temperature ([2]; cell cycle stage: mitosis) [°C] | solubility change mitosis (log2) [3] |
| --- | --- | --- | --- | --- |
| MGQQVGRVGEAPGLQQPQPRGIRGSSAARPSGRRRDPAGRTTETGFNIFTQHDHFASCVEDGFEGDKTGGSSPEALHRPYGCDVEPQALNEAIRWSSKENLLGATESDPNLFVALYDFVASGDNTLSITKGEKLRVLGYNQNGEWSEVRSKNGQGWVPSNYITPVNSLEKHSWYHGPVSRSAAEYLLSSLINGSFLVRESESSPGQLSISLRYEGRVYHYRINTTADGKVYVTAESRFSTLAELVHHHSTVADGLVTTLHYPAPKCNKPTVYGVSPIHDKWEMERTDITMKHKLGGGQYGEVYVGVWKKYSLTVAVKTLKEDTMEVEEFLKEAAVMKEIKHPNLVQLLGVCTLEPPFYIVTEYMPYGNLLDYLRECNREEVTAVVLLYMATQISSAMEYLEKKNFIHRDLAARNCLVGENHVVKVADFGLSRLMTGDTYTAHAGAKFPIKWTAPESLAYNTFSIKSDVWAFGVLLWEIATYGMSPYPGIDLSQVYDLLEKGYRMEQPEGCPPKVYELMRACWKWSPADRPSFAETHQAFETMFHDSSISEEVAEELGRAASSSSVVPYLPRLPILPSKTRTLKKQVENKENIEGAQDATENSASSLAPGFIRGAQASSGSPALPRKQRDKSPSSLLEDAKETCFTRDRKGGFFSSFMKKRNAPTPPKRSSSFREMENQPHKKYELTGNFSSVASLQHADGFSFTPAQQEANLVPPKCYGGSFAQRNLCNDDGGGGGGSGTAGGGWSGITGFFTPRLIKKTLGLRAGKPTASDDTSKPFPRSNSTSSMSSGLPEQDRMAMTLPRNCQRSKLQLERTVSTSSQPEENVDRANDMLPKKSEESAAPSRERPKAKLLPRGATALPLRTPSGDLAITEKDPPGVGVAGVAAAPKGKEKNGGARLGMAGVPEDGEQPGWPSPAKAAPVLPTTHNHKVPVLISPTLKHTPADVQLIGTDSQGNKFKLLSEHQVTSSGDKDRPRRVKPKCAPPPPPVMRLLQHPSICSDPTEEPTALTAGQSTSETQEGGKKAALGAVPISGKAGRPVMPPPQVPLPTSSISPAKMANGTAGTKVALRKTKQAAEKISADKISKEALLECADLLSSALTEPVPNSQLVDTGHQLLDYCSGYVDCIPQTRNKFAFREAVSKLELSLQELQVSSAAAGVPGTNPVLNNLLSCVQEISDVVQR [ABL2] | 0.0755 | 49.2 | 49.1 | -0.139 |
| MAAPEAPPLDRVFRTTWLSTECDSHPLPPSYRKFLFETQAADLAGGTTVAAGNLLNESEKDCGQDRRAPGVQPCRLVTMTSVVKTVYSLQPPSALSGGQPADTQTRATSKSLLPVRSKEVDVSKQLHSGGPENDVTKITKLRRENGQMKATDTATRRNVRKGYKPLSKQKSEEELKDKNQLLEAVNKQLHQKLTETQGELKDLTQKVELLEKFRDNCLAILESKGLDPALGSETLASRQESTTDHMDSMLLLETLQEELKLFNETAKKQMEELQALKVKLEMKEERVRFLEQQTLCNNQVNDLTTALKEMEQLLEM [KNSTRN] | 0.269 | 48.7 | 50.5 | 0.517 |
| MASYFDEHDCEPSDPEQETRTNMLLELARSLFNRMDFEDLGLVVDWDHHLPPPAAKTVVENLPRTVIRGSQAELKCPVCLLEFEEEETAIEMPCHHLFHSSCILPWLSKTNSCPLCRYELPTDDDTYEEHRRDKARKQQQQHRLENLHGAMYT [RNF181] | 0.563 | 54.8 | 55.8 | 0.00514 |
| RPL22L1 | -0.564 | 53.8 | 52 | 0.209 |
| HMGN3 | -0.266 | – | 56.8 | 1.55 |
| MAVLKLTDQPPLVQAIFSGDPEEIRMLIHKTEDVNTLDSEKRTPLHVAAFLGDAEIIELLILSGARVNAKDNMWLTPLHRAVASRSEEAVQVLIKHSADVNARDKNWQTPLHVAAANKAVKCAEVIIPLLSSVNVSDRGGRTALHHAALNGHVEMVNLLLAKGANINAFDKKDRRALHWAAYMGHLDVVALLINHGAEVTCKDKKGYTPLHAAASNGQINVVKHLLNLGVEIDEINVYGNTALHIACYNGQDAVVNELIDYGANVNQPNNNGFTPLHFAAASTHGALCLELLVNNGADVNIQSKDGKSPLHMTAVHGRFTRSQTLIQNGGEIDCVDKDGNTPLHVAARYGHELLINTLITSGADTAKCGIHSMFPLHLAALNAHSDCCRKLLSSGFEIDTPDKFGRTCLHAAAAGGNVECIKLLQSSGADFHKKDKCGRTPLHYAAANCHFHCIETLVTTGANVNETDDWGRTALHYAAASDMDRNKTILGNAHDNSEELERARELKEKEATLCLEFLLQNDANPSIRDKEGYNSIHYAAAYGHRQCLELLLERTNSGFEESDSGATKSPLHLAAYNGHHQALEVLLQSLVDLDIRDEKGRTALDLAAFKGHTECVEALINQGASIFVKDNVTKRTPLHASVINGHTLCLRLLLEIADNPEAVDVKDAKGQTPLMLAVAYGHIDAVSLLLEKEANVDTVDILGCTALHRGIMTGHEECVQMLLEQEVSILCKDSRGRTPLHYAAARGHATWLSELLQMALSEEDCCFKDNQGYTPLHWACYNGNENCIEVLLEQKCFRKFIGNPFTPLHCAIINDHGNCASLLLGAIDSSIVSCRDDKGRTPLHAAAFADHVECLQLLLRHSAPVNAVDNSGKTALMMAAENGQAGAVDILVNSAQADLTVKDKDLNTPLHLACSKGHEKCALLILDKIQDESLINEKNNALQTPLHVAARNGLKVVVEELLAKGACVLAVDENASRSNGPRSTPGTAVQKEE [ANKRD44] | -0.235 | 51.7 | 52.2 | -0.0872 |
| SRCAP | -0.24 | 48.8 | 50.3 | 0.0318 |
| MMGCFALQTVDTELTADSVEWCPLQGCRHLLACGTYQLRRPEDRPAGPQNKGGMEVKEPQVRLGRLFLYSFNDNNSIHPLVEVQRKDTSAILDMKWCHIPVAGHALLGLADASGSIQLLRLVESEKSHVLEPLSSLALEEQCLALSLDWSTGKTGRAGDQPLKIISSDSTGQLHLLMVNETRPRLQKVASWQAHQFEAWIAAFNYWHPEIVYSGGDDGLLRGWDTRVPGKFLFTSKRHTMGVCSIQSSPHREHILATGSYDEHILLWDTRNMKQPLADTPVQGGVWRIKWHPFHHHLLLAACMHSGFKILNCQKAMEERQEATVLTSHTLPDSLVYGADWSWLLFRSLQRAPSWSFPSNLGTKTADLKGASELPTPCHECREDNDGEGHARPQSGMKPLTEGMRKNGTWLQATAATTRDCGVNPEEADSAFSLLATCSFYDHALHLWEWEGN [DPH7] | -0.0249 | – | 57.1 | -0.0679 |
| MEQAPNMAEPRGPVDHGVQIRFITEPVSGAEMGTLRRGGRRPAKDARASTYGVAVRVQGIAGQPFVVLNSGEKGGDSFGVQIKGANDQGASGALSSDLELPENPYSQVKGFPAPSQSSTSDEEPGAYWNGKLLRSHSQASLAGPGPVDPSNRSNSMLELAPKVASPGSTIDTAPLSSVDSLINKFDSQLGGQARGRTGRRTRMLPPEQRKRSKSLDSRLPRDTFEERERQSTNHWTSSTKYDNHVGTSKQPAQSQNLSPLSGFSRSRQTQDWVLQSFEEPRRSAQDPTMLQFKSTPDLLRDQQEAAPPGSVDHMKATIYGILREGSSESETSVRRKVSLVLEKMQPLVMVSSGSTKAVAGQGELTRKVEELQRKLDEEVKKRQKLEPSQVGLERQLEEKTEECSRLQELLERRKGEAQQSNKELQNMKRLLDQGEDLRHGLETQVMELQNKLKHVQGPEPAKEVLLKDLLETRELLEEVLEGKQRVEEQLRLRERELTALKGALKEEVASRDQEVEHVRQQYQRDTEQLRRSMQDATQDHAVLEAERQKMSALVRGLQRELEETSEETGHWQSMFQKNKEDLRATKQELLQLRMEKEEMEEELGEKIEVLQRELEQARASAGDTRQVEVLKKELLRTQEELKELQAERQSQEVAGRHRDRELEKQLAVLRVEADRGRELEEQNLQLQKTLQQLRQDCEEASKAKMVAEAEATVLGQRRAAVETTLRETQEENDEFRRRILGLEQQLKETRGLVDGGEAVEARLRDKLQRLEAEKQQLEEALNASQEEEGSLAAAKRALEARLEEAQRGLARLGQEQQTLNRALEEEGKQREVLRRGKAELEEQKRLLDRTVDRLNKELEKIGEDSKQALQQLQAQLEDYKEKARREVADAQRQAKDWASEAEKTSGGLSRLQDEIQRLRQALQASQAERDTARLDKELLAQRLQGLEQEAENKKRSQDDRARQLKGLEEKVSRLETELDEEKNTVELLTDRVNRGRDQVDQLRTELMQERSARQDLECDKISLERQNKDLKTRLASSEGFQKPSASLSQLESQNQLLQERLQAEEREKTVLQSTNRKLERKVKELSIQIEDERQHVNDQKDQLSLRVKALKRQVDEAEEEIERLDGLRKKAQREVEEQHEVNEQLQARIKSLEKDSWRKASRSAAESALKNEGLSSDEEFDSVYDPSSIASLLTESNLQTSSC [CGN] | -0.601 | 53.6 | 53.6 | 0.648 |
| MAQSINITELNLPQLEMLKNQLDQEVEFLSTSIAQLKVVQTKYVEAKDCLNVLNKSNEGKELLVPLTSSMYVPGKLHDVEHVLIDVGTGYYVEKTAEDAKDFFKRKIDFLTKQMEKIQPALQEKHAMKQAVMEMMSQKIQQLTALGAAQATAKA [PFDN5] | -0.425 | 54.4 | 53.1 | 0.784 |
| MPVTVTRTTITTTTTSSSGLGSPMIVGSPRALTQPLGLLRLLQLVSTCVAFSLVASVGAWTGSMGNWSMFTWCFCFSVTLIILIVELCGLQARFPLSWRNFPITFACYAALFCLSASIIYPTTYVQFLSHGRSRDHAIAATFFSCIACVAYATEVAWTRARPGEITGYMATVPGLLKVLETFVACIIFAFISDPNLYQHQPALEWCVAVYAICFILAAIAILLNLGECTNVLPIPFPSFLSGLALLSVLLYATALVLWPLYQFDEKYGGQPRRSRDVSCSRSHAYYVCAWDRRLAVAILTAINLLAYVADLVHSAHLVFVKV [MYADM] | -0.352 | 52.9 | 53 | -0.0179 |
| MRLAGPLRIVVLVVSVGVTWIVVSILLGGPGSGFPRIQQLFTSPESSVTAAPRARKYKCGLPQPCPEEHLAFRVVSGAANVIGPKICLEDKMLMSSVKDNVGRGLNIALVNGVSGELIEARAFDMWAGDVNDLLKFIRPLHEGTLVFVASYDDPATKMNEETRKLFSELGSRNAKELAFRDSWVFVGAKGVQNKSPFEQHVKNSKHSNKYEGWPEALEMEGCIPRRSTAS [FAM3A] | -0.0403 | 51.9 | 52.8 | -0.0146 |
| MGEQPIFSTRAHVFQIDPNTKKNWVPTSKHAVTVSYFYDSTRNVYRIISLDGSKAIINSTITPNMTFTKTSQKFGQWADSRANTVYGLGFSSEHHLSKFAEKFQEFKEAARLAKEKSQEKMELTSTPSQESAGGDLQSPLTPESINGTDDERTPDVTQNSEPRAEPTQNALPFSHSSAISKHWEAELATLKGNNAKLTAALLESTANVKQWKQQLAAYQEEAERLHKRVTELECVSSQANAVHTHKTELNQTIQELEETLKLKEEEIERLKQEIDNARELQEQRDSLTQKLQEVEIRNKDLEGQLSDLEQRLEKSQNEQEAFRNNLKTLLEILDGKIFELTELRDNLAKLLECS [HOMER1] | 0.426 | 51 | 51.9 | 0.185 |
| GNPTG | -0.582 | 54 | 53.9 | 0.688 |
| MSTASSSSSSSSSQTPHPPSQRMRRSAAGSPPAVAAAGSGNGAGGGGGVGCAPAAGAGRLLQPIRATVPYQLLRGSQHSPTRPPVAAAAASLGSLPGPGAARGPSPSSPTPPAAAAPAEQAPRAKGRPRRSPESHRRSSSPERRSPGSPVCRADKAKSQQVRTSSTIRRTSSLDTITGPYLTGQWPRDPHVHYPSCMKDKATQTPSCWAEEGAEKRSHQRSASWGSADQLKEQIAKLRQQLQRSKQSSRHSKEKDRQSPLHGNHITISHTQATGSRSVPMPLSNISVPKSSVSRVPCNVEGISPELEKVFIKENNGKEEVSKPLDIPDGRRAPLPAHYRSSSTRSIDTQTPSVQERSSSCSSHSPCVSPFCPPESQDGSPCSTEDLLYDRDKDSGSSSPLPKYASSPKPNNSYMFKREPPEGCERVKVFEEMASRQPISAPLFSCPDKNKVNFIPTGSAFCPVKLLGPLLPASDLMLKNSPNSGQSSALATLTVEQLSSRVSFTSLSDDTSTAGSMEASVQQPSQQQQLLQELQGEDHISAQNYVII [GLCCI1] | 0.4 | 53.7 | 54.4 | -0.0403 |
